# Laboratory results from patent EP4424703A1.
# What was measured:
# [1] = target: human transferrin receptor-1 on human TfR-positive cells (SK-OV-3, hCMEC/D3) (human) (UniProt P02786); assay: flow cytometry on SK-OV-3 cells, 600 nM Ztaq-ABD (negative control) co-incubated with 25 µg/mL Tf-488
# [2] = target: human transferrin receptor-1 on human TfR-positive cells (SK-OV-3, hCMEC/D3) (human) (UniProt P02786); assay: flow cytometry on SK-OV-3 cells, 200 nM Ztaq-ABD (negative control) co-incubated with 25 µg/mL Tf-488
# UniProt P02786, sequence (P02786 whole entry): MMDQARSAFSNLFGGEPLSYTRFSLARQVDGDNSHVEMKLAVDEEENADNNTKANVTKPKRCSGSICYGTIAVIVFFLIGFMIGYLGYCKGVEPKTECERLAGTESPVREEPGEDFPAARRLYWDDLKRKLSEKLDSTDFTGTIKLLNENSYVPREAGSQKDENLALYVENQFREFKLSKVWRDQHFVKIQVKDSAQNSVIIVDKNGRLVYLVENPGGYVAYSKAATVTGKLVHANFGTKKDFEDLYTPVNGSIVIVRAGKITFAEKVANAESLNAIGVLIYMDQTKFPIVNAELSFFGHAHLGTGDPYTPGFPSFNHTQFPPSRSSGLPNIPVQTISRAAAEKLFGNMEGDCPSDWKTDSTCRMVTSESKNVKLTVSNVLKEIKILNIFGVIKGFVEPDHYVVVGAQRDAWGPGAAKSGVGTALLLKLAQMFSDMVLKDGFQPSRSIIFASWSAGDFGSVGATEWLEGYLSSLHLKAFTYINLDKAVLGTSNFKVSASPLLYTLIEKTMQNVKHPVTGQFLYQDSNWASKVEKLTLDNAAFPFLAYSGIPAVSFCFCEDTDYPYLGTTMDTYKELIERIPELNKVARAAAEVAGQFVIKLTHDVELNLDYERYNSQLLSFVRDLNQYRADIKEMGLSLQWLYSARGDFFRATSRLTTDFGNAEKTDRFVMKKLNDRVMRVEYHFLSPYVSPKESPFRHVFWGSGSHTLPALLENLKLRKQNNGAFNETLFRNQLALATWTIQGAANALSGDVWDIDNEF
Substance,MFI 640/660 nm [1],MFI 640/660 nm [2]
Ztaq-ABD (designed binder),3.69 MFI,
Ztaq-ABD,,1.62 MFI
